Results on eleven molecules are retold here after patent US8673306B2, “Compositions and methods of use for antibodies of dickkopf-1” (Novartis AG, priority 2006, dated 2014).

Numbering of substitutions follows the chain as printed. Marks after values point to notes of the source that are not given here. Where only a bound is given, the exact number is not on record here.

B1: MOR04910: affinity-optimized Fab from MOR04461; VH SEQ ID NO: 11, VL SEQ ID NO: 30; also used as MOR4910 IgG (antibody, listed as Homo sapiens, V domains shown)
VH: QVQLVESGGGLVQPGGSLRLSCAASGFTFSSYWMSWVRQAPGKGLEWVSGISYSGSNTHYADSVKGRFTISRDNSKNTLYLQMNSLRAEDTAVYYCARMGIDLDYWGQGTLVTVSS
VL: DIALTQPASVSGSPGQSITISCTGTSSDVGGFNYVSWYQQHPGKAPKLMIHDGSNRPSGVSNRFSGSKSGNTASLTISGLQAEDEADYYCQSWDVSPITAVFGGGTKLTVLGQ
B2: MOR04516: parental HuCAL GOLD anti-DKK1 Fab; VH SEQ ID NO: 7, VL SEQ ID NO: 26 (antibody, listed as Homo sapiens, V domains shown)
VH: QVQLVQSGAEVKKPGESLKISCKGSGYSFTNYYIGWVRQMPGKGLEWMGIIYPTDSYTNYSPSFQGQVTISADKSISTAYLQWSSLKASDTAMYYCARGIPFRMRGFDYWGQGTLVTVSS
VL: DIVLTQPPSVSGAPGQRVTISCSGSSSNIGSSFVNWYQQLPGTAPKLLIGNNSNRPSGVPDRFSGSKSGTSASLAITGLQSEDEADYYCASFDMGSPNVVFGGGTKLTVLGQ
B3: MOR04456: parental HuCAL GOLD anti-DKK1 Fab; VH SEQ ID NO: 4, VL SEQ ID NO: 23 (antibody, listed as Homo sapiens, V domains shown)
VH: QVQLVESGGGLVQPGGSLRLSCAASGFTFNNYGMTWVRQAPGKGLEWVSGISGSGSYTYYADSVKGRFTISRDNSKNTLYLQMNSLRAEDTAVYYCARTIYMDYWGQGTLVTVSS
VL: DIVLTQSPATLSLSPGERATLSCRASQNLFSPYLAWYQQKPGQAPRLLIYGASNRATGVPARFSGSGSGTDFTLTISSLEPEDFATYYCQQYGDEPITFGQGTKVEIKRT
B4: MOR04455: parental HuCAL GOLD anti-DKK1 Fab; VH SEQ ID NO: 3, VL SEQ ID NO: 22 (antibody, listed as Homo sapiens, V domains shown)
VH: QVQLVESGGGLVQPGGSLRLSCAASGFTFSSYGMSWVRQAPGKGLEWVSGISGSGSYTYYADSVKGRFTISRDNSKNTLYLQMNSLRAEDTAVYYCARHYMDHWGQGTLVTVSS
VL: DIQMTQSPSSLSASVGDRVTITCRASQDISNYLHWYQQKPGKAPKLLIYGASNLQSGVPSRFSGSGSGTDFTLTISSLQPEDFAVYYCQQYDSIPMTFGQGTKVEIKRT
B5: MOR04454: parental HuCAL GOLD anti-DKK1 Fab; VH SEQ ID NO: 2, VL SEQ ID NO: 21 (antibody, listed as Homo sapiens, V domains shown)
VH: QVQLVESGGGLVQPGGSLRLSCAASGFTFSNYGLHWVRQAPGKGLEWVSSISYYGSSTYYADSVKGRFTISRDNSKNTLYLQMNSLRAEDTAVYYCARDGSHMDKPPGYVFAFWGQGTLVTVSS
VL: DIQMTQSPSSLSASVGDRVTITCRASQGIKNYLNWYQQKPGKAPKLLIGAASSLQSGVPSRFSGSGSGTDFTLTISSLQPEDFATYYCLQYYGMPPTFGQGTKVEIKRT
B6: MOR04461: parental HuCAL GOLD anti-DKK1 Fab; VH SEQ ID NO: 5, VL SEQ ID NO: 24 (antibody, listed as Homo sapiens, V domains shown)
VH: B1 VH
VL: DIALTQPASVSGSPGQSITISCTGTSSDVGGFNYVSWYQQHPGKAPKLMIHDGSNRPSGVSNRFSGSKSGNTASLTISGLQAEDEADYYCSTWDMTVDFVFGGGTKLTVLGQ
B7: MOR04470: parental HuCAL GOLD anti-DKK1 Fab; VH SEQ ID NO: 6, VL SEQ ID NO: 25 (antibody, listed as Homo sapiens, V domains shown)
VH: B1 VH with G50V, Y53S, S54D, G55S, N57S, H59Y, M99H, L103F, Y105H
VL: DIALTQPASVSGSPGQSITISCTGTSSDLGGYNYVSWYQQHPGKAPKLMIYDVNNRPSGVSNRFSGSKSGNTASLTISGLQAEDEADYYCQSYASGNTKVVFGGGTKLTVLGQ
B8: MOR04907: affinity-optimized Fab from MOR04456; VH SEQ ID NO: 8, VL SEQ ID NO: 27 (antibody, listed as Homo sapiens, V domains shown)
VH: B3 VH
VL: B3 VL with T86V, G93L, D94S, E95L, I97T
B9: MOR04914: affinity-optimized Fab from MOR04470; VH SEQ ID NO: 14, VL SEQ ID NO: 33 (antibody, listed as Homo sapiens, V domains shown)
VH: B1 VH with G50V, Y53S, S54D, G55S, N57S, H59Y, M99H, L103F, Y105H
VL: B7 VL with A94T, S95Y, G96T, N97P, T98I, K99S, V100P
B10: MOR04921: affinity-optimized Fab from MOR04461; VH SEQ ID NO: 12, VL SEQ ID NO: 31 (antibody, listed as Homo sapiens, V domains shown)
VH: B1 VH
VL: B1 VL with S92T, D94A, V95T, I98L, T99S, A100S
B11: MOR04954: affinity-optimized Fab from MOR04470; VH SEQ ID NO: 18, VL SEQ ID NO: 37 (antibody, listed as Homo sapiens, V domains shown)
VH: QVQLVESGGGLVQPGGSLRLSCAASGFTFSSYWMSWVRQAPGKGLEWVSVIEHKDKGGTTYYAASVKGRFTISRDNSKNTLYLQMNSLRAEDTAVYYCARHGIDFDHWGQGTLVTVSS
VL: B7 VL

One data set has as its target T1, DKK1/LRP6 binding on cell surface (Homo sapiens, UniProt O94907).
T1 construct: made in house; LRP6 and MESD transiently transfected into HEK293T
T1 sequence (O94907 32-266): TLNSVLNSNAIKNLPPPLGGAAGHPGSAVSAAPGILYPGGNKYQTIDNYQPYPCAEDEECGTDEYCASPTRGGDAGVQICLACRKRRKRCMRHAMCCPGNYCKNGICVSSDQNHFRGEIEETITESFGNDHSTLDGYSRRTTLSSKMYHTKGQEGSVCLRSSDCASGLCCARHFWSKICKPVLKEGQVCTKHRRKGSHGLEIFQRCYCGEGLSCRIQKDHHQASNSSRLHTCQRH
Briefly: DKK1-GFP binding to LRP6 on HEK293T cell surface, fluorescence microscopy. It counts as cell-based. The settings on record: HEK293T transfected with LRP6 and MESD. As for the experimental part:
However, upon co-transfection of LRP6 with a surface trafficking chaperone protein, MESD, GFP-tagged DKK1 can be detected on the cell surface, illustrating the specific nature of the DKK1/LRP6 interaction.
The ability of MOR04910 to inhibit DKK1/LRP6 binding on cell surface is measured by fluorescence microscopy. HEK293T cells are either mock transfected and transiently transfected with plasmids encoding LRP6 and MESD. Cells are incubated with DKK1-GFP conditioned medium together with anti-lysozyme FAb or anti-DKK1 FAb MOR04910 for 1 hour at 37° C., and examined by fluorescence microscopy. GFP fluorescence reflects DKK1-GFP binding to overexpressed LRP6 on the plasma membrane.
As to B1, the “inhibition of DKK1/LRP6 binding on cell surface” value is “specifically blocks this interaction”.

System in a further data set: not listed separately
As to the kind of experiment: Fab stability and aggregation (size exclusion chromatography). It counts as physicochemical. Particulars: Fab after purification. In general terms: In gel filtration, larger molecules generally elute earlier.
Consider B2, for which the Size exclusion chromatography entry was “# (monomeric portion >90%)”.
Same read-out and setting: as for B3, the entry is “# (monomeric portion >90%)”; as for B4, “# (monomeric portion >90%)”.
Still for that read-out and setting: the value for B5 was “# (monomeric portion >90%)”; that for B6 was “# (monomeric portion >90%)”; that for B7 was “# (monomeric portion >90%)”.

The next data set addresses T2, human recombinant, biotinylated DKK1 (Homo sapiens, UniProt O94907).
T2 sequence (O94907 32-266): T1 sequence (O94907 32-266)
As to the kind of experiment: ELISA binding of matured Fabs in presence of 50% human serum. Particulars: Fab 1 μg/ml. As for the experimental part:
Binding specificity of the matured Fabs in the presence of 50% human serum (HS) is determined. Serial dilutions of human recombinant, biotinylated DKK1 in TBS are Coated onto Neutravidin microtiter plates for 2 h at room temperature, from 8 ng DKK1 per well to a concentration of 125 ng DKK1 per well. After coating of the antigen, wells are blocked with TBS/0.05% Tween (TBS-T) supplemented with 1% BSA for 1 h at room temperature. Purified Fabs described above are diluted either in TBS/4% BSA or TBS/50% HS at a final concentration of 1 μg/ml, added to the coated and blocked wells and the plates are incubated for 1 h at room temperature. For detection, an anti-FLAG alkaline phosphatase (AP)-conjugated antibody (1:5000 dilution in TBST) and the fluorogenic substrate AttoPhos (Roche) are used. After each incubation, the wells of the microtiter plates are washed with TBST five times, except after the final incubation step with the labeled secondary antibody when wells are washed three times.
The fluorescence is measured in a TECAN Spectrafluor plate reader. Table 8 summarizes the binding activity of the optimized anti-DKK1 Fabs in presence of 50% human serum compared to binding activity in 4% BSA, which ranges from 83% to 100%. The median value is found to be 93%, thus the anti-DKK1 Fabs are found to fully bind to target in the presence of human serum.
(In general: An ELISA detects its analyte on a solid surface through an enzyme-linked reagent.)
Consider B8, for which the “Binding activity w/50% Human serum vs 4% BSA (%)” value was >83* %.
The same measure, in the same setting: the value for B9 was 83* %.
Take B10: the “Binding activity w/50% Human serum vs 4% BSA (%)” value was 93* %.
The same measure, in the same setting: as for B11, the figure is >83* %.
